Assay [1] addresses T1, LAMP5 (endogenous, on KHM-1B multiple myeloma cells and in cancer cell line lysates) (human, UniProt Q9UJQ1 30-280).
T1 construct: Endogenous LAMP5 of the cell lines; also called BAD-LAMP; C20orf103
T1 sequence: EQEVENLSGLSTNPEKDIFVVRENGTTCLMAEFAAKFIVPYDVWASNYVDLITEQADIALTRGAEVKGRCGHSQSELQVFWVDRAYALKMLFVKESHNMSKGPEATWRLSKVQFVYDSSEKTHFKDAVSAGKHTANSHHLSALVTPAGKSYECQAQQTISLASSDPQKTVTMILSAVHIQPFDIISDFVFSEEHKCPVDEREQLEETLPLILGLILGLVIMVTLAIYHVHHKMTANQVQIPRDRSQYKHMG
Nature of the assay: FACS on KHM-1B cells with or without IL-6 stimulation, 10 µg/mL antibody. The protocol: (§1) Binding of the anti-LAMP5 monoclonal antibody produced in Example 2 to LAMP5 and mLAMP5 was evaluated by FACS. First, LAMP5 CHO (Example 2) or mLAMP5 CHO was suspended in FACS/PBS (PBS(−) comprising 0.2% bovine serum albumin (BSA) and 0.1% sodium azide) followed by disseminating into the wells of a 96-well round bottom plate at 5×10⁴ cells per well. After adding anti-LAMP5 monoclonal antibody to each well to a final concentration of 10, 2, 0.4, 0.08 or 0.016 μg/ml, the mixture was allowed to react for 1 hour on ice. After reacting, the cell suspensions were washed with FACS/PBS and allowed to react for 1 hour with FITC-labeled anti-mouse IgG antibody on ice. After reacting, the cells were washed with FACS/PBS and then suspended in FACS/PBS comprising 10 μg/ml of propidium iodide (Sigma-Aldrich Co. LLC.). The staining intensity of the cells was measured with a flow cytometer. Only viable cells not stained with propidium iodide were used in data analysis. As a result, clones D1, D2, D9 and D10 all bound concentration-dependently to LAMP5 (FIG. 2A). Clones D1, D2 and D10 in particular bound strongly in comparison with clone D9 (FIG. 2A). […] Clone D10 only bound weakly to mLAMP5 (FIG. 2B).
Next, LAMP5 expression was measured by FACS in KHM-1B cells (with or without IL-6 stimulation). FACS was carried out in the same manner as Example 4 using anti-LAMP5 monoclonal antibodies D1, D2, D9 and D10 and a negative reference in the form of IgG1κ (Pharmingen Inc., Cat. No. 553447) at concentrations of 10 μg/mL. As a result, LAMP5 was detected on the cell membrane of KHM-1B cells, and the expressed amount thereof was confirmed to be increased by IL-6 stimulation (FIG. 4).

Assay [2] concerns the target T2, mouse LAMP5 having a V5 tag added to the N-terminal thereof, expressed on CHO cells (mLAMP5 CHO) (mouse, UniProt Q9D387 30-280).
T2 construct: also called mouse-origined LAMP5; V5-mLAMP5
T2 sequence: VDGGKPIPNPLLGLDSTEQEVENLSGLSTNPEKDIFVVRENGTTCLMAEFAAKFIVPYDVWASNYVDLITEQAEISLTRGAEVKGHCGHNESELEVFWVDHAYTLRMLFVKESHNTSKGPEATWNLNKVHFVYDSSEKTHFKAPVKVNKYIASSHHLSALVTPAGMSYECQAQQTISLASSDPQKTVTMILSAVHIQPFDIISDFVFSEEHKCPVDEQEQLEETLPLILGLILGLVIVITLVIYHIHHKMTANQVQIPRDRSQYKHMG
As to the kind of experiment: FACS on mLAMP5 CHO cells, FITC anti-mouse IgG. The protocol:
as §1

Residue numbers refer to the chain shown, from its start.

B1: anti-LAMP5 monoclonal antibody D2 (antibody, mouse IgG1, V domains shown)
VH: EVKLEESGGGLVQPGGSMKLSCTASGFTFSDAWMDWVRQSPEKGLEWVAEIRGKADNHATYYAESVKGRFTISRDDSKSSVYLQMNSLRTEDTAIYYCIPYYRYAMDYWGQGTSVTVSS
VL: QIVLTQSPAIMSASPGEKVTITCTASSSVSYMHWFQQKPGTSPKLWIYATSYLASGVPTRFSGSGSGTSYSLTISRMEAEDAATYYCQQKSNYPWTFGGGTNLEIK
notes: also called clone D2; D2 antibody
Turning to B1, in assay [1], the binding result is “binds”.

B2: anti-LAMP5 monoclonal antibody D9 (antibody, V domains shown)
VH: EVKLVESGGGLVKPGGSLKLSCAASGFTFSSYAMSWVRQTPEKRLEWVASISSGGSTYYPDSVKGRFTISRDNARNILYLQMSSLRSEDTAMYYCARLITTRFAYWGQGTLVTVSA
VL: ENVLTQSPAIMSASPGEKVTMTCRASSSVSSSYLHWYQQKSGASPKLWIYSTSNLASGVPARFSGSGSGTSYSLTISSVEAEDAATYYCQQYSGYPLTFGSGTKLEIK
notes: also called clone D9; D9 antibody
Regarding B2, the values for the binding result in assay [2] and in assay [1] were “no binding (tested: 10 µg/ml (highest concentration tested))” and “binds”, respectively.

B3: anti-LAMP5 monoclonal antibody D1 (antibody, mouse IgG1, V domains shown)
VH: EIQLQQSGPDLVKPGASVKVSCKASGFAFSTYNMYWVKQSHGKSLEWIGYIDPYNGDITYNQKFKGKATLTVDKSSSTAYMHLNSLTSEDSAVYYCARRDYFYAMDYWGQGTSVTVSS
VL: DIVMTQSHKFMSTSVGDRVSITCKASQGVGTAVAWYQQKPGQSPKLLIYWASTRHTGVPDRFTGSGSGTDFTLSVTNVQSEDLADYFCHQYSSYPLTFGSGTKLELK
notes: also called clone D1; D1 antibody
Regarding B3, the results for the binding result in assay [2] and in assay [1] were “no binding (tested: 10 µg/ml (highest concentration tested))” and “binds”, respectively.

B4: anti-LAMP5 monoclonal antibody D10 (antibody, V domains shown)
VH: B3 VH with D10E, F27Y, S30T, T31S, D57G, T59S
VL: B3 VL with S74T, V75I, H89Q
notes: also called clone D10; D10 antibody
Turning to B4, the binding result in assay [1] is recorded as “binds”.

Values taken from patent US20150118184A1 (Chugai, published 2015).
